Data reported in PMC3814001.
Each block holds one substance with its values, some of them ahead of it.

Assays:
[1] = target: AKAP18γ–GFP (human)
[2] = target: AKAP18γ (human γ isoform of AKAP18), strep-II and 6xHis tagged (human)
[3] = target: RIIα (type IIα regulatory subunit of PKA), wild type, RIIα-6xHis (mouse) (UniProt P12367); experiment: native gel or EMSA; SEC peak fraction on precast 3–8% Tris-Acetate native gels, 50 mM Tris pH 8.3, 50 mM Tricine, silver staining
[4] = target: PKA holoenzyme (PKA_(holo)) formed by wild-type RIIα and PKAc (mouse) (UniProt P12367); experiment: as above

Chain of AKAP18γ–GFP (human) (Q9P0M2 whole entry, canonical isoform): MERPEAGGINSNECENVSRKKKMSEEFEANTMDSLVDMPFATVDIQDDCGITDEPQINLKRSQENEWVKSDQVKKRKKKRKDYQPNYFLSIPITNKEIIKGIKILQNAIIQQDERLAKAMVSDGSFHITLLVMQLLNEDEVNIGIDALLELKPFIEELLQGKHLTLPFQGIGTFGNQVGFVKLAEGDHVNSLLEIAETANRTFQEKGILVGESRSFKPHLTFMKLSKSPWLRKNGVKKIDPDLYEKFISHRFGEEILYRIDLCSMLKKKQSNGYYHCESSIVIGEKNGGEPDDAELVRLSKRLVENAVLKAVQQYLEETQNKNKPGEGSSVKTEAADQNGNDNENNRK

cAMP phosphodiesterase activity in anti-GFP immune complexes from HEK293 cells, fold over GFP controls or rolipram-treated samples [1]: 3.27 fold | basal (cAMP-independent) 32P incorporation into PDE4D by PKA holoenzyme with against without AKAP18γ, autoradiography; the substrate here was purified MBP-PDE4D3 [2]: 1.87 fold
Substance: PDE4D (type 4 phosphodiesterase isoforms PDE4D3 / PDE4D5) (enzyme)

stoichiometry N [3]: 2 subunits
Substance: RIIα (type IIα regulatory subunit of PKA), wild type, RIIα-6xHis (from UniProt P12367 1-401) (natural protein; other documents disagree on this pair)

stoichiometry N (AKAP18γ per RIIα dimer with two PKAc) [4]: 1
Substance: AKAP18γ (human γ isoform of AKAP18), strep-II and 6xHis tagged (natural protein)
